In paper PMC10531876, “PLK1 Regulates MicroRNA Biogenesis through Drosha Phosphorylation” (International Journal of Molecular Sciences, 2023):

Biological target: T1, Flag-Drosha S300E,S302D (phospho-mimic) (UniProt Q9NRR4 1-1374, S300E | S302D)
T1 construct: Drosha with S300E and S302D, Flag-tagged as m1; also called phospho-mimic Drosha; source: HEK293T, transfected, in lysate
T1 sequence (looked up): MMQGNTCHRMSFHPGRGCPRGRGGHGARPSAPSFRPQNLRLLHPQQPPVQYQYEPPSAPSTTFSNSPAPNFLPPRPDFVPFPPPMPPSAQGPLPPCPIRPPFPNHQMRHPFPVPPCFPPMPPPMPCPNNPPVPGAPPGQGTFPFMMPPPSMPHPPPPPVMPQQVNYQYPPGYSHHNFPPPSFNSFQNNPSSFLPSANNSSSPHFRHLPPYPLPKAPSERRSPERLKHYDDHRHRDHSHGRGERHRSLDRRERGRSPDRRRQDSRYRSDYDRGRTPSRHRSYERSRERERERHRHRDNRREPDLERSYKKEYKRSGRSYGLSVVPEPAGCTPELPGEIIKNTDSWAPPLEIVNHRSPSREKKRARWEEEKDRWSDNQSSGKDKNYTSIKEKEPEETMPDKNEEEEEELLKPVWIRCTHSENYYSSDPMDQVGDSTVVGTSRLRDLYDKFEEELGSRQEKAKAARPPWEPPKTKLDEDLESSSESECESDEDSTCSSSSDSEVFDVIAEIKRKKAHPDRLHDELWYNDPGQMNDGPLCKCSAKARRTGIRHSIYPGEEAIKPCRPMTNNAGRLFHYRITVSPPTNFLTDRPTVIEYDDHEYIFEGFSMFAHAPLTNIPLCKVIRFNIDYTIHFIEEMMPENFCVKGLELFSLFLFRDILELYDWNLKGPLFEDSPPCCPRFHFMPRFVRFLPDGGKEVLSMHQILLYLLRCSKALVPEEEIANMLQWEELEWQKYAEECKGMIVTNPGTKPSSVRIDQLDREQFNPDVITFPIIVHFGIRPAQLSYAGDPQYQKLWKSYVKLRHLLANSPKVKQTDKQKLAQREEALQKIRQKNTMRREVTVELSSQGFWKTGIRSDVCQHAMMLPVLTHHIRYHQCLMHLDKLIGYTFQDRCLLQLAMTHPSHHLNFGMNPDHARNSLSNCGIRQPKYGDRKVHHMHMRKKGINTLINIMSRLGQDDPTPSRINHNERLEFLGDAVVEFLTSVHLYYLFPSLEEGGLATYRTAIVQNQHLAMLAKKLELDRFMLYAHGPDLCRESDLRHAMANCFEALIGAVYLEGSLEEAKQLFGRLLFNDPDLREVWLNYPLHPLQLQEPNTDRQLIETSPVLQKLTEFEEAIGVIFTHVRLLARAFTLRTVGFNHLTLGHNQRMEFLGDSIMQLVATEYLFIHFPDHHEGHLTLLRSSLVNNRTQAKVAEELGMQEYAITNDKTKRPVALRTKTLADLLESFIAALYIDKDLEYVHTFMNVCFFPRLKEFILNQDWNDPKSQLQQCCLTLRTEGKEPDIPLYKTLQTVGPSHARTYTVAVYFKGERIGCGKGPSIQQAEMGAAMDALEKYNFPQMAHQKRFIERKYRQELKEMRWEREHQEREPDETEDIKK
Assay: co-IP; Flag immunoprecipitates of HEK293T cells transfected with Flag-Drosha (WT or mutants), blotted for PLK1 or DGCR8; cells treated with DMSO, RO-520 (100 nM) or NMS (500 nM) for 16 h, or samples with RNase A; mutant panel 72 h after transfection
Conditions: partners not purified

B1: DGCR8 (natural protein, human (endogenous in HEK293T), UniProt Q8WYQ5 1-773, looked up)
chain: METDESPSPLPCGPAGEAVMESRARPFQALPREQSPPPPLQTSSGAEVMDVGSGGDGQSELPAEDPFNFYGASLLSKGSFSKGRLLIDPNCSGHSPRTARHAPAVRKFSPDLKLLKDVKISVSFTESCRSKDRKVLYTGAERDVRAECGLLLSPVSGDVHACPFGGSVGDGVGIGGESADKKDEENELDQEKRVEYAVLDELEDFTDNLELDEEGAGGFTAKAIVQRDRVDEEALNFPYEDDFDNDVDALLEEGLCAPKKRRTEEKYGGDSDHPSDGETSVQPMMTKIKTVLKSRGRPPTEPLPDGWIMTFHNSGVPVYLHRESRVVTWSRPYFLGTGSIRKHDPPLSSIPCLHYKKMKDNEEREQSSDLTPSGDVSPVKPLSRSAELEFPLDEPDSMGADPGPPDEKDPLGAEAAPGALGQVKAKVEVCKDESVDLEEFRSYLEKRFDFEQVTVKKFRTWAERRQFNREMKRKQAESERPILPANQKLITLSVQDAPTKKEFVINPNGKSEVCILHEYMQRVLKVRPVYNFFECENPSEPFGASVTIDGVTYGSGTASSKKLAKNKAARATLEILIPDFVKQTSEEKPKDSEELEYFNHISIEDSRVYELTSKAGLLSPYQILHECLKRNHGMGDTSIKFEVVPGKNQKSEYVMACGKHTVRGWCKNKRVGKQLASQKILQLLHPHVKNWGSLLRMYGRESSKMVKQETSDKSVIELQQYAKKNKPNLHILSKLQEEMKRLAEEREETRKKPKMSIVASAQPGGEPLCTVDV
notes: DGCR8, Microprocessor cofactor of Drosha, detected by blot in Flag immunoprecipitates of HEK293T cells; source: HEK293T lysate (cells transfected with Flag-Drosha only)
fold change of co-precipitated DGCR8 against WT Drosha: 2.5 fold
